Test results published in the supplement of paper PMC10567573.

B1: SEC22B (parent)
chain: FPKKLAFAYLEDLHSEFDEQHGKK

Variants of: B1
Test: protein stability index of a GFP-peptide fusion (GPS, HEK-293T) (PSI 1-6); higher = more stable
Conditions: c terminus: a fixed tail appended
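Further: lentivirally expressed fusions sorted by FACS into six bins by GFP to DsRed ratio, PSI derived from sequencing read proportions per bin multiplied by bin number.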

Variant | protein stability index
FPKKLAFAYLEDLHSEFDEPHGKK | 2.4
FPKKLAFAYLEDLHSEFDEQHHKK | 3
FPKKLAIAYLEDLHSEFDEQHGKK | 3.24
FPKKLADAYLEDLHSEFDEQHGKK | 3.98
FPKKLAFAYLEDLHSEFDEHHGKK | 2.47
FPKPLAFAYLEDLHSEFDEQHGKK | 2.45
FPKKLAFAYLEDLHSEFDIQHGKK | 2.37
FPYKLAFAYLEDLHSEFDEQHGKK | 1.74
FPKKLAFAYLEDLHSEKDEQHGKK | 2.98
FPKKLAFAYLERLHSEFDEQHGKK | 1.93
FEKKLAFAYLEDLHSEFDEQHGKK | 4.11
FPCKLAFAYLEDLHSEFDEQHGKK | 1.69
FPKKLAFTYLEDLHSEFDEQHGKK | 2.64
FPKKLAFAYLEDLTSEFDEQHGKK | 2.89
FPKKLAFAYLEDLHSEFDEQHGAK | 2.36
FPKKLAFASLEDLHSEFDEQHGKK | 2.73
FCKKLAFAYLEDLHSEFDEQHGKK | 1.87
FPKKFAFAYLEDLHSEFDEQHGKK | 2.17
FPKKLAFAYLEDLHSEFDEQHGKD | 2.68
FPKKLAFAYLEDLHSEFDHQHGKK | 2.05
FPKKLAFAYLEDLHSEFDEQFGKK | 2.46
FPKKLAFAYLEDLHSEFSEQHGKK | 2.92
FPKKLAFAKLEDLHSEFDEQHGKK | 3.08
FPKKLAFAYLEDLHSEFDEQHLKK | 2.34

Variant | protein stability index
FPKKLAFAYLRDLHSEFDEQHGKK | 2.24
FPKKLAFAFLEDLHSEFDEQHGKK | 1.99
FPKKLAFAYLEVLHSEFDEQHGKK | 1.85
FPKKLAGAYLEDLHSEFDEQHGKK | 3.8
FPKKLAFAYLEDLHLEFDEQHGKK | 2.85
FPKKLAFAYLEDLVSEFDEQHGKK | 1.98
FPKKLAFAYLEWLHSEFDEQHGKK | 2.49
FPKKLAFAYLEDLHSNFDEQHGKK | 2.15
FPKKLAFAYLVDLHSEFDEQHGKK | 1.77
FPKKLAFAYLEDLHFEFDEQHGKK | 2.15
FPKKLAFQYLEDLHSEFDEQHGKK | 3.08
FPKKLAFAYLEDLHSEFTEQHGKK | 2.56
FPKKLAFADLEDLHSEFDEQHGKK | 3.15
FPKVLAFAYLEDLHSEFDEQHGKK | 2.25
FPKTLAFAYLEDLHSEFDEQHGKK | 2.47
FPKKLAFAYLEDLHSIFDEQHGKK | 2.07
FPKKLAFAYLEALHSEFDEQHGKK | 2.1
FPAKLAFAYLEDLHSEFDEQHGKK | 1.91
FPKKLAFAYLSDLHSEFDEQHGKK | 1.78
FPKKLAFAYLEDLHSERDEQHGKK | 2.85
FPKKLAFAYLEDKHSEFDEQHGKK | 3.2
SPKKLAFAYLEDLHSEFDEQHGKK | 4.52
FPKKLAFAYLEDLHSEFNEQHGKK | 2.3
FPKKLAFAYLEDLHSEFDEQHGKV | 2.49

Variant | protein stability index
FPKKCAFAYLEDLHSEFDEQHGKK | 1.66
FPKKLAFAYLEDLFSEFDEQHGKK | 1.91
FPKKLAFAYLEILHSEFDEQHGKK | 1.72
FPKKLAFAYLWDLHSEFDEQHGKK | 2.02
FPKKLAFAYLEDLHSEFDYQHGKK | 2.39
FPKKLALAYLEDLHSEFDEQHGKK | 2.65
FPFKLAFAYLEDLHSEFDEQHGKK | 1.91
FPKMLAFAYLEDLHSEFDEQHGKK | 2.02
FSKKLAFAYLEDLHSEFDEQHGKK | 3.06
FPKKLAFAYLEDLHSHFDEQHGKK | 2.08
FPKKLAFAYLEDLHSEMDEQHGKK | 2.45
FPKKLAFAYTEDLHSEFDEQHGKK | 3.16
FPKKLAFAYLEKLHSEFDEQHGKK | 2.38
FPKKLAFAYLEDLHSEHDEQHGKK | 2.66
FPKKLAFAYLEDLHSETDEQHGKK | 2.99
FPKKLAFAYLEDLHSCFDEQHGKK | 2
FPKKLAFAYLEDLHREFDEQHGKK | 2.41
FPKKLAFAYLEDLHSEFDECHGKK | 2.09
FPKKLAFAYLEDLHSEYDEQHGKK | 2.91
FPKKLAFAYEEDLHSEFDEQHGKK | 3.35
FTKKLAFAYLEDLHSEFDEQHGKK | 3.05
FPKKLAFAYLEDLHSEFDEQHGKN | 2.32
FPTKLAFAYLEDLHSEFDEQHGKK | 2.53
IPKKLAFAYLEDLHSEFDEQHGKK | 3.56

Variant | protein stability index
FPKKLAFAYLEDLHSEFFEQHGKK | 2.04
FPKKLAFAYLEDWHSEFDEQHGKK | 2.99
FPKKLAFAYLEMLHSEFDEQHGKK | 2.39
FRKKLAFAYLEDLHSEFDEQHGKK | 2.94
FPKKLAFAYLEDLHSEDDEQHGKK | 3.03
FPKKLAFAYLEDLHHEFDEQHGKK | 2.22
FPKKLAFAYLEDLHSEFDEQHDKK | 2.15
FPKKLAFAYLEELHSEFDEQHGKK | 3.72
FPKKLAFAYLEDLHSTFDEQHGKK | 2.36
FPKKLHFAYLEDLHSEFDEQHGKK | 2.91
FPKKLAFAYLEDLHSEFDKQHGKK | 2.37
FPKKLAFAYLNDLHSEFDEQHGKK | 2.61
FPKKLASAYLEDLHSEFDEQHGKK | 3.8
FPKKLAFAYWEDLHSEFDEQHGKK | 2.27
FPKKLAFAYLEDLHSEFDEQHQKK | 2.36
FPKKLAEAYLEDLHSEFDEQHGKK | 4
FPKKLAFAYLEDLHSEFDEQHFKK | 1.97
FPKKLAFAYLEDLHSEFDMQHGKK | 2.53
FPKKLAFAYLEDLHSEFDEQIGKK | 1.98
FPKKLKFAYLEDLHSEFDEQHGKK | 2.59
FPKKLAYAYLEDLHSEFDEQHGKK | 2.5
FPKKLAFAYLPDLHSEFDEQHGKK | 1.8
